Test results published in publication PMC5515408, “Sequence-specific DNA binding by MYC/MAX to low-affinity non-E-box motifs”.

Experiments:
MAX:MAX (p21) [1] = biological target: T1, MAX:MAX (p21) (human, UniProt P61244-2 1-151); experiment: competition; labeled CME probe; EMSA: 10 ul, 0.5 pmol probe, 80 ng poly(dA-dT):(dA-dT), 375 ng/ul BSA, 15 mM Tris-HCl pH 7.9, 100 mM KCl, 15% glycerol, 0.15 mM EDTA, 0.075% NP-40, 7.5 mM 2-mer; details: protein: recombinant; tags: 6xHis; chain copies: 2; annealed complementary oligos
T1 sequence (P61244 other isoform, or with tags, fused parts or gaps): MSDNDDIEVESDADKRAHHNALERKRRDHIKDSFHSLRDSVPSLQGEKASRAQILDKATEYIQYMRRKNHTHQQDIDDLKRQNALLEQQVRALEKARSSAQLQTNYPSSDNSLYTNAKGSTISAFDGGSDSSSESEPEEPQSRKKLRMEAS

[2] = biological target: T2, MYC (p64);MAX (p21), in MYC:MAX (human;human, UniProt P01106-1;P61244-2 1-439;1-151, |); experiment: EMSA; EMSA: 10 ul, 0.5 pmol probe, 80 ng poly(dA-dT):(dA-dT), 375 ng/ul BSA, 15 mM Tris-HCl pH 7.9, 100 mM KCl, 15% glycerol, 0.15 mM EDTA, 0.075% NP-40, 7.5 mM 2-mer; details: protein: recombinant;recombinant; tags: 6xHis;6xHis; copies: 1;1; label: 32P (Klenow fill-in with [alpha-32P]dGTP) as probe; annealed complementary oligos; probe Klenow-filled
T2 sequence (P01106 16-454, chain 1 of 2): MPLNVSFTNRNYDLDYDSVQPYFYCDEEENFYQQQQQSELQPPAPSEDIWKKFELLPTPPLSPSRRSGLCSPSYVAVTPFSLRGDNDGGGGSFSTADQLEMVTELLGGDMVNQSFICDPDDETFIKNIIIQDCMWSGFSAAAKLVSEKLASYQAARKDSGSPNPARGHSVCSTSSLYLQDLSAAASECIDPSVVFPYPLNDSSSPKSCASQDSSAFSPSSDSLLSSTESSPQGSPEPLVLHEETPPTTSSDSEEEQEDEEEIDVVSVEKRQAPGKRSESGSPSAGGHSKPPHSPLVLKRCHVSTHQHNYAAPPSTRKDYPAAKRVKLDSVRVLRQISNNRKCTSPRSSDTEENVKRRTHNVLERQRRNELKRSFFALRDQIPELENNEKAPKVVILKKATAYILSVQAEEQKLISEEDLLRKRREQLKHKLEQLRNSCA
T2 sequence (P61244 other isoform, or with tags, fused parts or gaps |, chain 2 of 2): as the sequence (P61244 other isoform, or with tags, fused parts or gaps) above
MAX:MAX (p21) [3] = biological target: T1, MAX:MAX (p21); experiment: as above; details: protein: recombinant; tags: 6xHis; chain copies: 2; label: 32P (Klenow fill-in with [alpha-32P]dGTP) as probe; annealed complementary oligos; probe Klenow-filled
MAX:MAX (p21) [4] = biological target: T1, MAX:MAX (p21); experiment: competition; labeled CME probe; stronger than NE; EMSA: 10 ul, 0.5 pmol probe, 80 ng poly(dA-dT):(dA-dT), 375 ng/ul BSA, 15 mM Tris-HCl pH 7.9, 100 mM KCl, 15% glycerol, 0.15 mM EDTA, 0.075% NP-40, 7.5 mM 2-mer; details: protein: recombinant; tags: 6xHis; chain copies: 2; annealed complementary oligos
[5] = biological target: T2, MYC (p64);MAX (p21), in MYC:MAX; experiment: EMSA competition; EMSA: 10 ul, 0.5 pmol probe, 80 ng poly(dA-dT):(dA-dT), 375 ng/ul BSA, 15 mM Tris-HCl pH 7.9, 100 mM KCl, 15% glycerol, 0.15 mM EDTA, 0.075% NP-40, 7.5 mM 2-mer; details: protein: recombinant;recombinant; tags: 6xHis;6xHis; copies: 1;1; label: 32P (Klenow fill-in with [alpha-32P]dGTP) as probe; annealed complementary oligos; probe Klenow-filled
MAX:MAX (p21) [6] = biological target: T1, MAX:MAX (p21); experiment: as above; details: protein: recombinant; tags: 6xHis; chain copies: 2; label: 32P (Klenow fill-in with [alpha-32P]dGTP) as probe; annealed complementary oligos; probe Klenow-filled

B1: NE-V4 (dsDNA)
DNA 1: CCGGCTGAAAGCTTGTATTAATAG
DNA 2: CTATTAATACAAGCTTTCAGCCGG
B1: no binding (MAX:MAX (p21) [1]).

B2: CME (dsDNA)
DNA 1: CCGGCTGACACGTGGTATTAATAG
DNA 2: CTATTAATACCACGTGTCAGCCGG
B2: binds [2]; binds (MAX:MAX (p21) [3]).

B3: E-V1 (dsDNA)
DNA 1: CCGGCTGACACGTTGTATTAATAG
DNA 2: CTATTAATACAACGTGTCAGCCGG
B3: binds (MAX:MAX (p21) [4]).

B4: NE-V2 (dsDNA)
DNA 1: CCGGCTGAGACGTTGTATTAATAG
DNA 2: CTATTAATACAACGTCTCAGCCGG
B4: no binding (MAX:MAX (p21) [1]).

B5: NE-V3 (dsDNA)
DNA 1: CCGGCTGATACGTAGTATTAATAG
DNA 2: CTATTAATACTACGTATCAGCCGG
B5: no binding (MAX:MAX (p21) [1]).

B6: NE-V1 (dsDNA)
DNA 1: CCGGCTGATACGTTGTATTAATAG
DNA 2: CTATTAATACAACGTATCAGCCGG
B6: no binding (MAX:MAX (p21) [1]).

B7: Ctrl (dsDNA)
DNA 1: CCGGCTGATTAGCAGTATTAATAG
DNA 2: CTATTAATACTGCTAATCAGCCGG
B7: no binding [2]; no binding (MAX:MAX (p21) [3]).

B8: NE (dsDNA)
DNA 1: CCGGCTGAAACGTTGTATTAATAG
DNA 2: CTATTAATACAACGTTTCAGCCGG
For B8, the binding signal [5] was ~20 fold lower affinity than CME and the binding signal (MAX:MAX (p21) [6]) was ~33 fold lower affinity than CME.
